Changes are numbered by the printed parent chain. Each block holds one molecule with its values, some of them ahead of it.
Experiments:
Assay in all cases: flow cytometry, CHO-K1; sub-column 2 of 2
Q91A = target: T1, Q91A
T1 construct: also called hCD27 Q91A
T1 receptor: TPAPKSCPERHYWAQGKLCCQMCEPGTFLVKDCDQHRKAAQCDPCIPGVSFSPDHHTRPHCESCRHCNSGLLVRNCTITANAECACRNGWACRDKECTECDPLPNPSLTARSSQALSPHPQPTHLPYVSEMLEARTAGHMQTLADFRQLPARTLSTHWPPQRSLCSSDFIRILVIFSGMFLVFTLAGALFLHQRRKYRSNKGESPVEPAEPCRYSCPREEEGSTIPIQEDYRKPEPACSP

G16A = target: T2, G16A
T2 construct: also called hCD27 G16A
T2 receptor: T1 receptor with G16A, A91Q

Q41A = target: T3, Q41A
T3 construct: also called hCD27 Q41A
T3 receptor: T1 receptor with Q41A, A91Q

R37A = target: T4, R37A
T4 construct: also called hCD27 R37A
T4 receptor: T1 receptor with R37A, A91Q

P44A = target: T5, P44A
T5 construct: also called hCD27 P44A
T5 receptor: T1 receptor with P44A, A91Q

I46A = target: T6, I46A
T6 construct: also called hCD27 I46A
T6 receptor: T1 receptor with I46A, A91Q

R93A = target: T7, R93A
T7 construct: also called hCD27 R93A
T7 receptor: T1 receptor with A91Q, R93A

W13A = target: T8, W13A
T8 construct: also called hCD27 W13A
T8 receptor: T1 receptor with W13A, A91Q

K38A = target: T9, K38A
T9 construct: also called hCD27 K38A
T9 receptor: T1 receptor with K38A, A91Q

N88A = target: T10, N88A
T10 construct: also called hCD27 N88A
T10 receptor: T1 receptor with N88A, A91Q

- % of WT hCD27 binding (geo mean FITC) (Q91A): 120%
- % of WT hCD27 binding (geo mean FITC) (G16A): 97.3%
- % of WT hCD27 binding (geo mean FITC) (Q41A): 76.1%
- % of WT hCD27 binding (geo mean FITC) (R37A): 87%
- % of WT hCD27 binding (geo mean FITC) (P44A): 90.5%
- % of WT hCD27 binding (geo mean FITC) (I46A): 82.7%
- % of WT hCD27 binding (geo mean FITC) (R93A): 91.1%
- % of WT hCD27 binding (geo mean FITC) (W13A): 93.4%
- % of WT hCD27 binding (geo mean FITC) (K38A): 97.7%
- % of WT hCD27 binding (geo mean FITC) (N88A): 116%
Molecule: 1A4 (mouse IgG1) (antibody)

- % of WT hCD27 binding (geo mean FITC) (Q91A): 111%
- % of WT hCD27 binding (geo mean FITC) (G16A): 102%
- % of WT hCD27 binding (geo mean FITC) (Q41A): 71.3%
- % of WT hCD27 binding (geo mean FITC) (R37A): 6.2%
- % of WT hCD27 binding (geo mean FITC) (P44A): 91.7%
- % of WT hCD27 binding (geo mean FITC) (I46A): 82.7%
- % of WT hCD27 binding (geo mean FITC) (R93A): 91.1%
- % of WT hCD27 binding (geo mean FITC) (W13A): 86.5%
- % of WT hCD27 binding (geo mean FITC) (K38A): 31.6%
- % of WT hCD27 binding (geo mean FITC) (N88A): 104%
Molecule: 9F4 (mouse IgG2a) (antibody)

- % of WT hCD27 binding (geo mean FITC) (Q91A): 136%
- % of WT hCD27 binding (geo mean FITC) (G16A): 108%
- % of WT hCD27 binding (geo mean FITC) (Q41A): 80.5%
- % of WT hCD27 binding (geo mean FITC) (R37A): 9.6%
- % of WT hCD27 binding (geo mean FITC) (P44A): 91%
- % of WT hCD27 binding (geo mean FITC) (I46A): 75%
- % of WT hCD27 binding (geo mean FITC) (R93A): 90%
- % of WT hCD27 binding (geo mean FITC) (W13A): 88.6%
- % of WT hCD27 binding (geo mean FITC) (K38A): 11.8%
- % of WT hCD27 binding (geo mean FITC) (N88A): 124%
B1: Antibody hCD27.131A (mouse parental 131A) (antibody, V domains shown)
VH: QIQLVQSGPELKKPGETVKISCKASGYTFTNYGMNWVKQAPGKGLKWMGWINTNTGEPTYAEEFKGRFAFSLETSATTAYLQINNLKNEDTATYFCAREGDAMDYWGQGTSVTVSS
VL: QIVLTQSPAIMSASPGEKVTMTCSASSSVSYMHWYQQKSGTSPKRWIYDTSKLASGVPARFSGSGSGTSYSLTISSMEAEDAATYYCQQWNSYPFTFGSGTKLEIK
notes: mouse IgG1; also called mouse hCD27.131A
